According to PMC10474468:

Columns and labels:
[1] = biological target: Trichomonas vaginalis riboside hydrolase (TvRH), His6 tag removed (Trichomonas vaginalis) (UniProt A2FTT0); assay: SEC
purified protein [2] = substrate: NC(=O)c1ccc[n+]([C@@H]2O[C@H](CO)[C@@H](O)[C@H]2O)c1; assay: purified protein; details: Ca2+ active site (modeled only); pH 6.5; 37.0 °C
purified protein [3] = substrate: O=c1[nH]c(=O)n([C@@H]2O[C@H](CO)[C@@H](O)[C@H]2O)cc1Br; assay: purified protein; details: Ca2+
purified protein [4] = substrate: O=c1ccn([C@@H]2O[C@H](CO)[C@@H](O)[C@H]2O)c(=O)[nH]1; assay: purified protein; details: Ca2+ active site (modeled only)
purified protein [5] = substrate: O=[N+]([O-])c1ccc(O[C@@H]2O[C@H](CO)[C@@H](O)[C@H]2O)cc1; assay: purified protein; details: Ca2+
purified protein [6] = substrate: O=c1[nH]c(=O)n([C@@H]2O[C@H](CO)[C@@H](O)[C@H]2O)cc1Cl; assay: purified protein; details: Ca2+
purified protein [7] = substrate: O=c1[nH]c(=O)n([C@@H]2O[C@H](CO)[C@@H](O)[C@H]2O)cc1F; assay: purified protein; details: Ca2+
purified protein [8] = substrate: Nc1ccn([C@@H]2O[C@H](CO)[C@@H](O)[C@H]2O)c(=O)n1; assay: purified protein; details: Ca2+

Molecule: Trichomonas vaginalis riboside hydrolase (TvRH), His6 tag removed (from UniProt A2FTT0 1-347) (enzyme)
- stoichiometry N [1]: 4

B1: TvRH (riboside hydrolase, TVAG_092730) (Trichomonas vaginalis G3) (protein)
chain: MSIKCALDCDPGHDDLAMIMLAVYSPKLDVQYISTTHGNQTVNKTYQNARRTLNLIKRADKIPVYRGYSKPLTRESVACPEIHGESGLGGVDWSEIDRTMPRNPALDILGYKDESELRPDDFFKHLHRLVSAAEDKFDIISTGSETNIAQYLLAYPEDAKKIRMTTMAGNFMIVGNIMPFAEFNVLIDPEAISNILQSGVDYTFAAPLDITHTVLVTEKVINDIKAATEPYSPKFTEMIIKLLFFFKDTYRDVFGFIDPPLHDPVAAFHLIAPEWFEHVRCHVDIETKGEYTYGCCCTNLILKKKDPTKIVKPDNATVCLKLKEGGHDAFWNQMITVWGEIAKEIGK
- Km (purified protein [2]): 99.1 µM
- kcat (purified protein [2]): 10.9 ± 0.24 s⁻¹
- kcat/Km (purified protein [2]): 110000 M⁻¹ s⁻¹
- Km (purified protein [3]): 20 µM
- kcat (purified protein [3]): 2.1 ± 0.1 s⁻¹
- kcat/Km (purified protein [3]): 100000 M⁻¹ s⁻¹
- Km (purified protein [4]): 39 µM
- kcat (purified protein [4]): 9.3 ± 0.27 s⁻¹
- kcat/Km (purified protein [4]): 240000 M⁻¹ s⁻¹
- Km (purified protein [5]): 13 µM
- kcat (purified protein [5]): 391 ± 2 s⁻¹
- kcat/Km (purified protein [5]): 3e+07 M⁻¹ s⁻¹
- Km (purified protein [6]): 11 µM
- kcat (purified protein [6]): 2.3 ± 0.1 s⁻¹
- kcat/Km (purified protein [6]): 210000 M⁻¹ s⁻¹
- Km (purified protein [7]): 17 µM
- kcat (purified protein [7]): 12.6 ± 0.6 s⁻¹
- kcat/Km (purified protein [7]): 770000 M⁻¹ s⁻¹
- Km (purified protein [8]): 33 µM
- kcat (purified protein [8]): 0.19 ± 0.003 s⁻¹
- kcat/Km (purified protein [8]): 5700 M⁻¹ s⁻¹
